Measurements published in patent US20200216495A1 (ADRX, published 2020).
Values joined by “and” are separate entries in the source; they are usually repeats but may differ in a detail not shown here. Equal values may be shown once. Square brackets hold non-standard residues; d marks the D form. Ends that are not written are not given here. dCit = NC(=O)NCCC[C@@H](N)C(=O)O

B1: lkilihyh (peptide)
peptide: [dL][dK][dI][dL][dI][dH][dY][dH]
B2: frlrihwf (peptide)
peptide: [dF][dR][dL][dR][dI][dH][dW][dF]
B3: lkirihlh (peptide)
peptide: [dL][dK][dI][dR][dI][dH][dL][dH]
B4: lkirilyh (peptide)
peptide: [dL][dK][dI][dR][dI][dL][dY][dH]
B5: wklwlrw (peptide)
peptide: [dW][dK][dL][dW][dL][dR][dW]
modifications: not fully specified; printed as wklwlrw
B6: wwlklrw (peptide)
peptide: [dW][dW][dL][dK][dL][dR][dW]
B7: lkirifyh (peptide)
peptide: [dL][dK][dI][dR][dI][dF][dY][dH]
B8: whvkfelf (peptide)
peptide: [dW][dH][dV][dK][dF][dE][dL][dF]
B9: frikirw (peptide)
peptide: [dF][dR][dI][dK][dI][dR][dW]
B10: lkiriwyh (peptide)
peptide: [dL][dK][dI][dR][dI][dW][dY][dH]
B11: wrlqvrw (peptide)
peptide: [dW][dR][dL][dQ][dV][dR][dW]
B12: wwlrihww (peptide)
peptide: [dW][dW][dL][dR][dI][dH][dW][dW]
B13: hrlkvrww (peptide)
peptide: [dH][dR][dL][dK][dV][dR][dW][dW]
B14: lkiriehy (peptide)
peptide: [dL][dK][dI][dR][dI][dE][dH][dY]
B15: wklklwww (peptide)
peptide: [dW][dK][dL][dK][dL][dW][dW][dW]
B16: wrlkvrwe (peptide)
peptide: [dW][dR][dL][dK][dV][dR][dW][dE]
B17: wrlkvrww (peptide)
peptide: [dW][dR][dL][dK][dV][dR][dW][dW]
B18: wklwlrww (peptide)
peptide: [dW][dK][dL][dW][dL][dR][dW][dW]
B19: wwrvklrw (peptide)
peptide: [dW][dW][dR][dV][dK][dL][dR][dW]
B20: wklklrww (peptide)
peptide: [dW][dK][dL][dK][dL][dR][dW][dW]
B21: lririrfh (peptide)
peptide: [dL][dR][dI][dR][dI][dR][dF][dH]
B22: wrlrihww (peptide)
peptide: [dW][dR][dL][dR][dI][dH][dW][dW]
B23: fririhhf (peptide)
peptide: [dF][dR][dI][dR][dI][dH][dH][dF]
B24: fkiklkw (peptide)
peptide: [dF][dK][dI][dK][dL][dK][dW]
B25: frlriww (peptide)
peptide: [dF][dR][dL][dR][dI][dW][dW]
B26: lairihy (peptide)
peptide: [dL][dA][dI][dR][dI][dH][dY]
B27: lkiriay (peptide)
peptide: [dL][dK][dI][dR][dI][dA][dY]
B28: fkihikhy (peptide)
peptide: [dF][dK][dI][dH][dI][dK][dH][dY]
B29: wririrw (peptide)
peptide: [dW][dR][dI][dR][dI][dR][dW]
B30: frlklrfh (peptide)
peptide: [dF][dR][dL][dK][dL][dR][dF][dH]
B31: lkiriryh (peptide)
peptide: [dL][dK][dI][dR][dI][dR][dY][dH]
B32: lkiriheh (peptide)
peptide: [dL][dK][dI][dR][dI][dH][dE][dH]
B33: lrvqvrl (peptide)
peptide: [dL][dR][dV][dQ][dV][dR][dL]
B34: ldlrfkly (peptide)
peptide: [dL][dD][dL][dR][dF][dK][dL][dY]
B35: fhleirhw (peptide)
peptide: [dF][dH][dL][dE][dI][dR][dH][dW]
B36: lrieiewh (peptide)
peptide: [dL][dR][dI][dE][dI][dE][dW][dH]
B37: wrlriew (peptide)
peptide: [dW][dR][dL][dR][dI][dE][dW]
B38: fwlklrwf (peptide)
peptide: [dF][dW][dL][dK][dL][dR][dW][dF]
B39: wrlriwww (peptide)
peptide: [dW][dR][dL][dR][dI][dW][dW][dW]
B40: wrlrlrw (peptide)
peptide: [dW][dR][dL][dR][dL][dR][dW]
B41: wrlkvrwh (peptide)
peptide: [dW][dR][dL][dK][dV][dR][dW][dH]
B42: lkikihy (peptide)
peptide: [dL][dK][dI][dK][dI][dH][dY]
B43: wrlkvrwr (peptide)
peptide: [dW][dR][dL][dK][dV][dR][dW][dR]
B44: wrlwihw (peptide)
peptide: [dW][dR][dL][dW][dI][dH][dW]
B45: hrlkvrwh (peptide)
peptide: [dH][dR][dL][dK][dV][dR][dW][dH]
B46: wfkiklel (peptide)
peptide: [dW][dF][dK][dI][dK][dL][dE][dL]
B47: lkizihy (peptide)
peptide: [dL][dK][dI][dCit][dI][dH][dY]
B48: wrfkfrw (peptide)
peptide: [dW][dR][dF][dK][dF][dR][dW]
B49: lairihyh (peptide)
peptide: [dL][dA][dI][dR][dI][dH][dY][dH]
B50: fkielhwh (peptide)
peptide: [dF][dK][dI][dE][dL][dH][dW][dH]
B51: mrlrihw (peptide)
peptide: [dM][dR][dL][dR][dI][dH][dW]
B52: fhirlewh (peptide)
peptide: [dF][dH][dI][dR][dL][dE][dW][dH]
B53: wwlrihw (peptide)
peptide: [dW][dW][dL][dR][dI][dH][dW]
B54: feirlhhw (peptide)
peptide: [dF][dE][dI][dR][dL][dH][dH][dW]
B55: wkvwvryw (peptide)
peptide: [dW][dK][dV][dW][dV][dR][dY][dW]
B56: friklkwh (peptide)
peptide: [dF][dR][dI][dK][dL][dK][dW][dH]
B57: felrlhwh (peptide)
peptide: [dF][dE][dL][dR][dL][dH][dW][dH]
B58: lkirihyh (peptide)
peptide: [dL][dK][dI][dR][dI][dH][dY][dH]
B59: lkleirwh (peptide)
peptide: [dL][dK][dL][dE][dI][dR][dW][dH]
B60: wrfkvrw (peptide)
peptide: [dW][dR][dF][dK][dV][dR][dW]

These binders were tested against Ac-VQIINK-NH2 (SEQ ID NO: 23) (N-terminal acetyl (Ac); C-terminal amide (NH2)) (assay: cell-based or functional assay).

Row | VQIINK Inhibition IC50 | Binder
1 | 1.41 µm | B1
2 | 1.81 µm | B2
3 | 1.81 µm | B3
4 | 1.46 µm | B4
5 | 1.95 µm | B5
6 | 1.99 µm | B6
7 | 1.53 µm | B7
8 | 2.12 µm | B8
9 | 1.47 µm | B9
10 | 1.89 µm | B10
11 | 2.12 µm | B11
12 | 1.83 µm | B12
13 | 1.77 µm | B13
14 | 1.57 µm | B14
15 | 1.44 µm | B15
16 | 1.54 µm | B16
17 | 1.97 µm | B17
18 | 1.58 µm | B18
19 | 1.57 µm | B19
20 | 1.76 µm | B20

Row | VQIINK Inhibition IC50 | Binder
21 | 1.84 µm | B21
22 | 1.88 µm | B22
23 | 2.02 µm | B23
24 | 1.55 µm | B24
25 | 1.4 µm | B25
26 | 1.71 µm | B26
27 | 1.41 µm | B27
28 | 1.77 µm | B28
29 | 1.73 µm | B29
30 | 1.8 µm | B30
31 | 1.49 µm and 2.92 µm | B31
32 | 1.75 µm | B32
33 | 1.48 µm | B33
34 | 1.55 µm | B34
35 | 1.79 µm | B35
36 | 2.1 µm | B36
37 | 1.98 µm | B37
38 | 1.63 µm | B38
39 | 1.75 µm | B39
40 | 1.54 µm | B40

Row | VQIINK Inhibition IC50 | Binder
41 | 1.92 µm | B41
42 | 1.96 µm | B42
43 | 1.7 µm | B43
44 | 1.73 µm | B44
45 | 1.97 µm | B45
46 | 1.74 µm | B46
47 | 2.13 µm | B47
48 | 1.95 µm | B48
49 | 1.98 µm | B49
50 | 1.41 µm | B50
51 | 1.58 µm | B51
52 | 2.01 µm | B52
53 | 2.11 µm | B53
54 | 1.78 µm | B54
55 | 1.53 µm | B55
56 | 1.52 µm | B56
57 | 1.57 µm | B57
58 | 1.99 µm | B58
59 | 1.76 µm | B59
60 | 1.66 µm | B60
